Source: US11549124B2 (priority 2017, dated 2023)

Tests used:
[1] = test system: wheat TaPAPhy phytase (EC 3.1.3.26); experiment: Residual phytase activity after treatment with protease at different phytase:protease ratios; settings: phytase: protease ratio of 1:20
Text: Values are mean of 3 independent technical replicates, and error bars represent means+±sd of replicates.

[2] = test system: phytases in crude extract from F. graminearum 7775; assay type: biochemical
[3] = test system: phytases in crude extract from F. culmorum 8984; assay type: biochemical
F. graminearum JCM9873 = assay type: cell-based
[4] = test system: TRI4, TRI5, TRI6 genes of F. graminearum JCM9873; assay type: cell-based
[5] = molecular target: Aspergillus ficuum phytase (Aspergillus niger, UniProt P34752)
Chain of Aspergillus ficuum phytase (P34752 24-467): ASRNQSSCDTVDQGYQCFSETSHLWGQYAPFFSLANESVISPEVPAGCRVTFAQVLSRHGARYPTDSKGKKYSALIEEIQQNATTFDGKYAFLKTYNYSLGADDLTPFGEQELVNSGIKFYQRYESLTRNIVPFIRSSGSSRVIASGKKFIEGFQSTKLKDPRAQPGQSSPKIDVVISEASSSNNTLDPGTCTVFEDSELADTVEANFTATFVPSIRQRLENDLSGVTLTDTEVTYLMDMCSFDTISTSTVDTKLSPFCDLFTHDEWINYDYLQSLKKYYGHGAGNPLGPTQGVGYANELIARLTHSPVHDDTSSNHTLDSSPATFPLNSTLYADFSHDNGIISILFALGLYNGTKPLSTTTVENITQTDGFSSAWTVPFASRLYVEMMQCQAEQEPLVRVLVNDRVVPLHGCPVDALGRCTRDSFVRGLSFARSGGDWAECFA

Molecule	phytase activity after exposure to protease [1]	inhibition of phytases in crude extract [2]	inhibition of phytases in crude extract [3]	15-ADON production by F. graminearum (F. graminearum JCM9873)	growth (biomass accumulation) of fungal culture (F. graminearum JCM9873)	toxin production of fungal culture (F. graminearum JCM9873)	expression of TRI4 gene [4]	expression of TRI5 gene [4]	expression of TRI6 gene [4]	pH of peak activity for inhibiting A. ficuum phytase ([5]; 5 μg HvNEP-1, 2.5 U/ml phytase, 2 mM sodium phytate, 1 h, 37° C., pH 2.0 to 8.0)	temperature of peak activity for inhibiting A. ficuum phytase ([5]; 100 mM acetate buffer pH 5.0, 1 h)
pepsin	unaffected										
HvNEP-1 (protein, Hordeum vulgare) MAMAIMNTLQCILFLMALIMTHQIPRATADADTPKVAMASSGAGSSFRLAAHHDHALSRSDDGFLHVQSRLDNLLPSEANVTTLRPPVASPLDMAFSVVVGLGSGKGRHDYNLKLDASGSLTWVQCKPCNPKQPQRGPLFDPKASSTFQQVAGTSQICHPPYPMEPAGQQCAFHLSGMGGMSVHGYVAMENLTMGPEAMKEFVFGCSHSTGHFNSHGTFAGVAAMGKMPTSLVMQVAARGQTRFSYCLFSGGASRHGFLRFGADVPSRSGLRTTKILPALDAHESQYYVSLVGISLDAKRLTGVRPEMFARQRGGEGGCVVDPGTPLTVLVREAYRVVEDAVWSDLRRNKAERVQREGYGLCVRKTAEIKRHLQSLSLHFAEETARLVVKPEQLFVAVESRLHGAALCLAMRPGERTVIGALQQVDTRFVYDLKDAKLSFASEPCSQDTAGVD		strongly inhibited	strongly inhibited	not detectable	strongly inhibited	strongly inhibited	suppressed	suppressed	suppressed	5.0	40 °C
